These results are taken from publication PMC4402518.

The data set addresses Hop2;Mnd1 (Giardia lamblia ATCC 50803;Giardia lamblia ATCC 50803) (UniProt E2RTU1). The data set can be described thus: fluorescence anisotropy. The note with it: Fluorescence anisotropy: 20 mM Tris-HCl pH 7.5, 100 mM NaCl, 5 mM MgCl2, 25 C, 50 nM DNA, triplicate, Exo I assay conditions not in material. Background: Polarisation of emitted light reports the rotation of a fluorescent probe.

With “GCGGGTAATCCAGATGTTCCACGTGAAACAGAACAACTAA (double strand) [40 bp dsDNA]”, the Kd (usually the concentration at which binding is half-saturated) (5 mM Mg2+) is 100 nM. For the setting “no Mg2+”, this sequence showed a binding signal (fold weaker than with 5 mM Mg2+) of 10.
